According to the supplement of paper PMC10567573:

B1: SOAT2 (parent)
chain: SLGKQKVFIIRKSLLDELMEVQHF

Variants of: B1
Assay: protein stability index of a GFP-peptide fusion (GPS, HEK-293T) (PSI 1-6); higher = more stable
Conditions: c terminus: a fixed tail appended
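Further: lentivirally expressed fusions sorted by FACS into six bins by GFP to DsRed ratio, PSI derived from sequencing read proportions per bin multiplied by bin number.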

Row | Variant | protein stability index
1 | SLGKQKVFIIRKSLLDECMEVQHF | 1.95
2 | SLGKQKVFIIRKSLLDEMMEVQHF | 1.7
3 | SLGKQKVFIIRKSLLDETMEVQHF | 1.31
4 | SLGKQKVFIIRKSLLDEYMEVQHF | 2.46
5 | SLGKQKVFIIRKSLLDEHMEVQHF | 1.85
6 | SLGKQKVFIIRKSLLDENMEVQHF | 2.54
7 | SLGKQKVFIIRKSLLDEGMEVQHF | 2.62
8 | SLGKQKVFIIRKSLLDEAMEVQHF | 1.46
9 | SLGKQKVFIIRKSLLDERMEVQHF | 1.98
10 | SLGKQKVFIIRKSLLDEIMEVQHF | 2.71
11 | SLGKQKVFIIRKSLLDEDMEVQHF | 2.01
12 | SLGKQKVFIIRKSLLDEVMEVQHF | 2.5
13 | SLGKQKVFIIRKSLLDEEMEVQHF | 1.8
14 | SLGKQKVFIIRKSLLDEKMEVQHF | 2.11
15 | SLGKQKVFIIRKSLLDEFMEVQHF | 1.41
16 | SLGKQKVFIIRKSLLDESMEVQHF | 1.25
17 | SLGKQKVFIIRKSLLDEPMEVQHF | 1.38
18 | SLGKQKVFIIRKSLLDEQMEVQHF | 2.21
19 | SLGKQKVFIIRKSRLDELMEVQHF | 2.64
20 | SLGKQKVFIIRKSCLDELMEVQHF | 1.85
21 | SLGKQKVFIIRKSGLDELMEVQHF | 2.2
22 | SLGKQKVFIIRKSTLDELMEVQHF | 2
23 | SLGKQKVFIIRKSHLDELMEVQHF | 2.86
24 | SLGKQKVFIIRKSILDELMEVQHF | 3.27

Row | Variant | protein stability index
25 | SLGKQKVFIIRKSELDELMEVQHF | 2
26 | SLGKQKVFIIRKSFLDELMEVQHF | 2.52
27 | SLGKQKVFIIRKSYLDELMEVQHF | 2.03
28 | SLGKQKVFIIRKSQLDELMEVQHF | 1.64
29 | SLGKQKVFIIRKSDLDELMEVQHF | 2.19
30 | SLGKQKVFIIRKSNLDELMEVQHF | 2.26
31 | SLGKQKVFIIRKSSLDELMEVQHF | 3.11
32 | SLGKQKVFIIRKSALDELMEVQHF | 2.72
33 | SLGKQKVFIIRKSVLDELMEVQHF | 2.22
34 | SLGKQKVFIIRKSPLDELMEVQHF | 2.43
35 | SLGKQKVFIIRKSMLDELMEVQHF | 2.25
36 | SLGKQKVFIIRKSKLDELMEVQHF | 1.69
37 | SLGKQKVFIIRKSLHDELMEVQHF | 1.78
38 | SLGKQKVFIIRKSLWDELMEVQHF | 2.68
39 | SLGKQKVFIIRKSLNDELMEVQHF | 1.88
40 | SLGKQKVFIIRKSLCDELMEVQHF | 2.08
41 | SLGKQKVFIIRKSLDDELMEVQHF | 2.38
42 | SLGKQKVFIIRKSLTDELMEVQHF | 1.54
43 | SLGKQKVFIIRKSLEDELMEVQHF | 2.29
44 | SLGKQKVFIIRKSLSDELMEVQHF | 2.23
45 | SLGKQKVFIIRKSLIDELMEVQHF | 2.35
46 | SLGKQKVFIIRKSLMDELMEVQHF | 2.37
47 | SLGKQKVFIIRKSLADELMEVQHF | 1.6
48 | SLGKQKVFIIRKSLPDELMEVQHF | 1.56

Row | Variant | protein stability index
49 | SLGKQKVFIIRKSLGDELMEVQHF | 2.5
50 | SLGKQKVFIIRKSLYDELMEVQHF | 1.52
51 | SLGKQKVFIIRKSLFDELMEVQHF | 3.01
52 | SLGKQKVFIIRKSLQDELMEVQHF | 1.8
53 | SLGKQKVFIIRKSLKDELMEVQHF | 3.07
54 | SLGKQKVFIIRKSLRDELMEVQHF | 2.41
55 | SLGKQKVFIIRKSLVDELMEVQHF | 1.78
56 | SLGKQKVFIIRKSLLSELMEVQHF | 2.09
57 | SLGKQKVFIIRKSLLAELMEVQHF | 1.7
58 | SLGKQKVFIIRKSLLFELMEVQHF | 2.19
59 | SLGKQKVFIIRKSLLYELMEVQHF | 3.13
60 | SLGKQKVFIIRKSLLMELMEVQHF | 3.67
61 | SLGKQKVFIIRKSLLHELMEVQHF | 2.86
62 | SLGKQKVFIIRKSLLGELMEVQHF | 2.76
63 | SLGKQKVFIIRKSLLCELMEVQHF | 2.63
64 | SLGKQKVFIIRKSLLQELMEVQHF | 2.44
65 | SLGKQKVFIIRKSLLIELMEVQHF | 2.98
66 | SLGKQKVFIIRKSLLPELMEVQHF | 2.02
67 | SLGKQKVFIIRKSLLWELMEVQHF | 3.25
68 | SLGKQKVFIIRKSLLTELMEVQHF | 2.14
69 | SLGKQKVFIIRKSLLEELMEVQHF | 2.39
70 | SLGKQKVFIIRKSLLRELMEVQHF | 4.61
71 | SLGKQKVFIIRKSLLLELMEVQHF | 3.27
72 | SLGKQKVFIIRKSLLNELMEVQHF | 3.3

Row | Variant | protein stability index
73 | SLGKQKVFIIRKSLLDGLMEVQHF | 2.81
74 | SLGKQKVFIIRKSLLDDLMEVQHF | 2.51
75 | SLGKQKVFIIRKSLLDSLMEVQHF | 3.09
76 | SLGKQKVFIIRKSLLDKLMEVQHF | 2.17
77 | SLGKQKVFIIRKSLLDALMEVQHF | 3.06
78 | SLGKQKVFIIRKSLLDPLMEVQHF | 2.21
79 | SLGKQKVFIIRKSLLDHLMEVQHF | 4.16
80 | SLGKQKVFIIRKSLLDTLMEVQHF | 3.87
81 | SLGKQKVFIIRKSLLDCLMEVQHF | 3.21
82 | SLGKQKVFIIRKSLLDFLMEVQHF | 2.52
83 | SLGKQKVFIIRKSLLDNLMEVQHF | 2.79
84 | SLGKQKVFIIRKSLLDVLMEVQHF | 3.36
85 | SLGKQKVFIIRKSLLDMLMEVQHF | 2.7
86 | SLGKQKVFIIRKSLLDRLMEVQHF | 2.41
87 | SLGKQKVFIIRKSLLDILMEVQHF | 2.86
88 | SLGKQKVFIIRKSLLDYLMEVQHF | 1.85
89 | SLGKQKVFIIRKSLLDLLMEVQHF | 2.79
90 | SLGKQKVFIIRKSLLDQLMEVQHF | 3.16
91 | SLGKQKVFIIRKSLLDWLMEVQHF | 3.08
92 | SLGKQKVFIIRKSLLDELGEVQHF | 2.23
93 | SLGKQKVFIIRKSLLDELSEVQHF | 2.25
94 | SLGKQKVFIIRKSLLDELYEVQHF | 1.36
